Test results published in the RNAGym collection of RNA variant scans (doi:10.1073/pnas.2313332121).
Fewer inactive variants are shown than the library holds.

B1: TPR 5TU (parent)
chain: GGAUCUUCUCGAUCUAACAAAAAAGACAAAUCUGCCACAAAGCUUGAGAGCAUCUUCGGAUGCAGAGGCGGCAGCCUUCGGUGGCGCGAUAGCGCCAACGUUCUCAACUAUGACACGCAAAACGCGUGCUCCGUUGAAUGGAGUUUAUCAUG

Variants of: B1
Experiment: polymerase ribozyme fitness, log enrichment relative to wild type (log ratio); higher = more active; in vitro selection for triplet polymerase activity
Method in brief: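 Only genotypes with ≥10 input reads and ≥1 read per output were kept after Illumina sequencing of input and output libraries. These libraries were PCR-built, transcribed mutants of each subunit of a heterodimeric triplet polymerase ribozyme, each put through one triplicate in vitro selection round with frozen incubation at −7 °C, gel excision of extended constructs, streptavidin-bead capture and RT-PCR. Fitness is a logarithmic ratio of genotype enrichment to wild-type enrichment, from inverse-variance-weighted replicate averages, with the logarithm in base 2.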

**Q.** Which “polymerase ribozyme fitness (log ratio)” value does the source give for GGAUCUUCUCGAUCUAACAAAAAAGACAAAUCUGCCACAAAGUUUGAGAACAUCUUCGGAUGCAGAGGCGGCAGCCUUCCGUGGCGCGAUAGCGACAACGUUCUCAACUAUGACACGCAAUACGCGUGCUCCGUUGAAUGGAGUUUAUCCUG [C43U G50A G80C C95A A121U A150C] here?
**A.** The value was no more than -4.2.

**Q.** Which “polymerase ribozyme fitness (log ratio)” value does the source give for GGAUCUUCUCGAUCUAACAAAAAAGAAAAAUCUGCCACAAAGCUUGAGACCAUCUUCGGAUGCAGAGGCGGCACCCCUCGGUGGCGCGAUAGCGCCAACGUUCACAACUAUGACACGCAAAACGCGUGCUCCGUUGAAUGGAGUUUAUCAUG [C27A G50C G74C U77C U104A] here?
**A.** The value was no more than -4.2.

**Q.** For GGAUCUUCUCGAUCUAACAAAAAAGACAAAUCUGCCACAAAGCUUGAGAGCAUCUUCGGAUGCAGAGGCGGCAGCCUUCGGUGGCGCGAUAGCGCCAACGUUCUCAGCUAUGACACUCAAAACGCGUGCUCCGUUGAAUGGAGUUUAUCAUG [A107G G117U], which “polymerase ribozyme fitness (log ratio)” value is on record?
**A.** The value was -4.04.

**Q.** Which “polymerase ribozyme fitness (log ratio)” value does the source give for GGAUCUUCUCGAUCUAACAAAAAAGACAAAUCUGCCACAAAGCUUGACAGCAUCUUCGGAUGCAGAGGCGGCAGCCUUCGGUGGCGCGAUAGCGCCAACGUUCUCAACUAUGACACGCAAAACGCGUGCUCCGAUGAAUGGAGUUUAUCAUG [G48C U134A] here?
**A.** The value was -1.01.

**Q.** With GGAUCUUCUCGAUCUAACGAAAAAGACAAAUCUGCCACAAAGCUUGAGAGCAUCUUCGGAUGCAGAGGCGGCAGCCUUCGGUGGCGCGCUAGCGCCAACGUUCUGAACUAUGACACGCAAAACGCGUGCUCCGUUGAAUGGAGUUUAUCAUG [A19G A89C C105G] as the variant, how does the “polymerase ribozyme fitness (log ratio)” value read?
**A.** Its value is -1.99.

**Q.** With GGAUCUUCUCGAUCUAACAUAAAAGACAAAUCUGCCACAAAGCUUGCGAGCAUCAGCGGAUGCAGAGGCGGUAGCCUUCGGUGGCGACAUAGCGCCAACGUUCUCAACUAUGACGCGCAAAACGCGUGCUCCGUUGAAUGGAGUUUAUCAUG [A20U A47C U55A U56G C72U C87A G88C A115G] as the variant, how does the “polymerase ribozyme fitness (log ratio)” value read?
**A.** The value was no more than -4.2.

**Q.** For GGAUCUUCUCGAUCUAACAAAAAAGACGAAUCUGCCUCAAAGCUUGAGAGCAUCUUAGGAUGCAGAGGCGGCAGCCUUCGGUGGCGCGAUAGCGCCAACGUUCUCAACUAUGACACGCAAAAUGCGUGCUCCGUUGAAUGGACUUUAUCAUG [A28G A37U C57A C123U G143C], which “polymerase ribozyme fitness (log ratio)” value is on record?
**A.** The value was no more than -4.2.

**Q.** Which “polymerase ribozyme fitness (log ratio)” value does the source give for GGAUCUUCUCGAUCUAACAAAAAAGACAUAUCUGCCACAAAGCUUGAGAGCAUCUUCGGAUGCAGAGGCGGCAGCCUUCGGUGGCGCGAGAGCGUCAACGUUCUCAACUAUGACGCUCAUAACGCGUGCUCCGUUGAAUGGAGUUUAUCAUG [A29U U90G C95U A115G G117U A120U] here?
**A.** The value was no more than -4.2.

**Q.** With GGAUCUUCUCGAUCUAACAAAAAAGACAAAUCUGCCAGAAAGCUUGAGAGCAUCUUCGCAUGUAGAGGCGGCAGCCUUCGGUUGCGCGAGAGCGCCAACGUUCUCAACUAUGACACGCAAAACGCUUGCUCCGUUGAAUGGAGUUUAUCAUG [C38G G59C C63U G83U U90G G126U] as the variant, how does the “polymerase ribozyme fitness (log ratio)” value read?
**A.** The value was no more than -4.2.

**Q.** For GGAUCUUCUCGAUCUAACAAAAAAGACAAAUCUGCCACAAAGCUUGAUAGCAUCUUCGGAUGCAGAGGCGGCAGCCUUCGGUGGCCCGAUAGCGCCAACGUUCUCAACUAUGACACGCAAAACGCGUGCUCCGUUGAAUGGAGUUUAUCAUG [G48U G86C], which “polymerase ribozyme fitness (log ratio)” value is on record?
**A.** Its value is -3.31.

**Q.** With GGAUCUUCUCGAUCUAACAAAAAAGACAAAUCUGCCACAAAGCUUGAGACCGACUUCGGAUGCAGAGGCGGCAGCCUUCGCGGGCGCUAUAGCGCCAACGUUCUGAACUAUGACACGCAAAACGCGUGCUCCGUUGAAUGGAGUUUAUCGUG [G50C A52G U53A G81C U82G G88U C105G A150G] as the variant, how does the “polymerase ribozyme fitness (log ratio)” value read?
**A.** The value was no more than -4.2.

**Q.** With GGAUCUUCUCGAUCUAACAAAAAAGACAAAUCUGCCACAAAGCUUGAGAGCAUCCUCGGAUGCAGAGGCGGCAUCCUUCGGUGGCGCGAUAGCGCCAACGUUCUCAACUAUGACACGCAAAACGCGUGCUCCGUUGAAUGGAGUUUAUCAUG [U55C G74U] as the variant, how does the “polymerase ribozyme fitness (log ratio)” value read?
**A.** Its value is no more than -4.2.

**Q.** With GGAUCUUCUCGAUCUAACAAAAAAGACAAAUCUGCCACAAAGCUUGAGAGCAUCGUAGCAUGCAGAGGCGGCAGCCUUCGGUGGAGCGAUAGCGCCAACGUUCUCAACUAUGACGCGCUAAACGCGUGCUCCGUUGAAUGGAGUUUAUCAUG [U55G C57A G59C C85A A115G A119U] as the variant, how does the “polymerase ribozyme fitness (log ratio)” value read?
**A.** Its value is -2.01.

**Q.** For GGAUCUUCUCGAUCUAACAAAAAAGACAAAUCUGCCACAAAGCUUGAGAGCAUCUUCGGAUGCAGAGGCGGCGGCCUUCGGUGGCUCGAUAGCGCCAACGUUCUUUACUAUGACACGCAAAACGCGUGCUCCGUUGAAUGGAGCUUAUCAUG [A73G G86U C105U A106U U144C], which “polymerase ribozyme fitness (log ratio)” value is on record?
**A.** Its value is -3.89.

**Q.** Which “polymerase ribozyme fitness (log ratio)” value does the source give for GGAUCUUCUCGAUCUAACAAAAAAGAGAAAUCUGCCACAAAGCUUGAGAGCAUCUUCGGAUGCAGAGGCGGCAGCCUUCGGUGACGCGAUAGCGCCAACGUUCUCAACUAUGACACGCAAAACGCGUGCUCCGUUGAAUGGAGUUUAUCAUG [C27G G84A] here?
**A.** The value was -3.69.

**Q.** For GGAUCUUCUCGAUCUAACAAAAAAGACAAUUCUGCCACAAAGCUUGAGAGCAUCUUCGGAUGCAGAGGCGGCAGCCUUCGGUGGCGCGAUAGUGCCAACGUUCUCAACUAUGACACGCAAAACGCGUGCUCCGUUGAAUGGAGUUUAUCAUG [A30U C93U], which “polymerase ribozyme fitness (log ratio)” value is on record?
**A.** The value was -3.92.

**Q.** Which “polymerase ribozyme fitness (log ratio)” value does the source give for GGAUCUUCUCGAUCUAACAAACAAGACAAAUCUGCCACAAAGCUUGAGAGCAUCUUCGGAUGCAGAGGCGCCAGCCUUUGGUGGCGCGAUAGCGGCAACGUUCUCAACUAUGACACGCAAAACGCGUGCUCCGUUGAAUGGAACUUAUCAUG [A22C G71C C79U C95G G143A U144C] here?
**A.** The value was no more than -4.2.

**Q.** Which “polymerase ribozyme fitness (log ratio)” value does the source give for GGAUCUUCUCGAUCUAACAAACAAGACAAAUCUGCCACAAAGCUUGAGAGCAUCUUCGGAUGCAGAGGUGGCAGCCUUCGGUGGCGCGAUAGUGCCAACGUUCUCAACUAUGACACGCAAAACGCGUGCUCCGUUGAAUGGAGUUUAUCAUG [A22C C69U C93U] here?
**A.** The value was -1.59.

**Q.** Which “polymerase ribozyme fitness (log ratio)” value does the source give for GGAUCUUCUCGAUCUAACGAAAAAGACAAAUCUGCCACACAGCUUGAUAGCAUCUUCGGAAGCAGAGGCGGCACCCUUCGGUGGCGAGAUAGCGCCAACGUUCUCAACUAUGACACGCAAAACGCUUGCUCCGUUGAAUGGAGUUUAUCAUG [A19G A40C G48U U61A G74C C87A G126U] here?
**A.** Its value is no more than -4.2.
